Laboratory results reported in patent publication US20210196796A1 (SYNTHEKINE, published 2021).

T1: orthogonal hCD122 receptor (hoRb), hCD122 with H133D and Y134F (human, UniProt P14784 27-550)
T1 sequence: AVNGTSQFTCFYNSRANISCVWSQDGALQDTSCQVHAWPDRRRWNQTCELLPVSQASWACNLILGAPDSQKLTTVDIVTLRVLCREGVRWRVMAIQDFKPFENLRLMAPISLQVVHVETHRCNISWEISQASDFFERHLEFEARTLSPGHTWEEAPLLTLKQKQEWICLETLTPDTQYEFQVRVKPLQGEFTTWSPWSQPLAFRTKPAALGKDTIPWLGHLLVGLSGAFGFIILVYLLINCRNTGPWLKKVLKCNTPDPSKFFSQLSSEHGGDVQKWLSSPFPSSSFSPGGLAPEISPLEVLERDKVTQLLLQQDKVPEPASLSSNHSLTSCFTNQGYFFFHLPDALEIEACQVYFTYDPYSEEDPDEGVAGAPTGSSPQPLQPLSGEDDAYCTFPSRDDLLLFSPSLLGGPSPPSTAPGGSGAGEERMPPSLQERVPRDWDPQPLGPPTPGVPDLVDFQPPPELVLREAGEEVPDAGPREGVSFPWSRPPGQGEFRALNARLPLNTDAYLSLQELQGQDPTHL


How the values were obtained:
[1] = target: T1, orthogonal hCD122 receptor (hoRb), …; test: cell-based or functional assay
[2] = target: T1, orthogonal hCD122 receptor (hoRb), …; test: cell-based or functional assay; remark: listed apart in the source
For Relative Proliferation Fold Change 3F8 1:10 in this document: reference of the scale not given here.
For Relative Proliferation Fold Change 3F8 1:2 in this document: reference of the scale not given here.
For Relative Proliferation Fold Change 3F8 1:50 in this document: reference of the scale not given here.
For Relative Proliferation Fold Change NKL 1:10 in this document: reference of the scale not given here.
For Relative Proliferation Fold Change NKL 1:2 in this document: reference of the scale not given here.
For Relative Proliferation Fold Change NKL 1:50 in this document: reference of the scale not given here.

Binder	3F8 Ortho Proliferation Signal 1:2 [1]	3F8 Ortho Proliferation Signal 1:10 [1]	3F8 Ortho Proliferation Signal 1:50 [1]	Relative Proliferation Fold Change 3F8 1:2 [1]	Relative Proliferation Fold Change 3F8 1:10 [1]	Relative Proliferation Fold Change 3F8 1:50 [1]	NKL Ortho Proliferation Signal 1:2 [2]	NKL Ortho Proliferation Signal 1:10 [2]	NKL Ortho Proliferation Signal 1:50 [2]	Relative Proliferation Fold Change NKL 1:2 [2]	Relative Proliferation Fold Change NKL 1:10 [2]	Relative Proliferation Fold Change NKL 1:50 [2]
SQILKA (ligand) APTSSSTKKTQLQLSQLLILLKAILNGINNYKNPKLTRMLTFKFYMPKKATELKHLQCLEEELKPLEEVLNLAQSKNFHLRPRDLISNINVIVLELKGSETTFMCEYADETATIVEFLNRWITFCQSIISTLT	38500 cts/min	45700 cts/min	20300 cts/min	45.8 fold	34.2 fold	34.4 fold	55300	52500	24500	4.01 fold	3.44 fold	1.67 fold
T3Q, SQVLKA (ligand) APQSSSTKKTQLQLSQLLVLLKAILNGINNYKNPKLTRMLTFKFYMPKKATELKHLQCLEEELKPLEEVLNLAQSKNFHLRPRDLISNINVIVLELKGSETTFMCEYADETATIVEFLNRWITFCQSIISTLT	39200 cts/min	32200 cts/min	14200 cts/min	68.3 fold	28.2 fold	17.2 fold	65300	73700	34800	4.19 fold	4.03 fold	1.93 fold
T3G, SQVLKA (ligand) APGSSSTKKTQLQLSQLLVLLKAILNGINNYKNPKLTRMLTFKFYMPKKATELKHLQCLEEELKPLEEVLNLAQSKNFHLRPRDLISNINVIVLELKGSETTFMCEYADETATIVEFLNRWITFCQSIISTLT	31800 cts/min	24400 cts/min	9460 cts/min	20.4 fold	19.4 fold	7.14 fold	58900	66900	32200	3.94 fold	3.76 fold	1.92 fold

Next, values leading:

3F8 Ortho Proliferation Signal 1:2 [1]	3F8 Ortho Proliferation Signal 1:10 [1]	3F8 Ortho Proliferation Signal 1:50 [1]	Relative Proliferation Fold Change 3F8 1:2 [1]	Relative Proliferation Fold Change 3F8 1:10 [1]	Relative Proliferation Fold Change 3F8 1:50 [1]	NKL Ortho Proliferation Signal 1:2 [2]	NKL Ortho Proliferation Signal 1:10 [2]	NKL Ortho Proliferation Signal 1:50 [2]	Relative Proliferation Fold Change NKL 1:2 [2]	Relative Proliferation Fold Change NKL 1:10 [2]	Relative Proliferation Fold Change NKL 1:50 [2]	Binder
47300 cts/min	56600 cts/min	33100 cts/min	0.81 fold	1.23 fold	1.29 fold	59500	73700	45000	1 fold	1.73 fold	1.91 fold	SQVSKA (ligand) APTSSSTKKTQLQLSQLLVSLKAILNGINNYKNPKLTRMLTFKFYMPKKATELKHLQCLEEELKPLEEVLNLAQSKNFHLRPRDLISNINVIVLELKGSETTFMCEYADETATIVEFLNRWITFCQSIISTLT
1010 cts/min	1270 cts/min	1370 cts/min	1.51 fold	1.35 fold	1.66 fold	6790	9390	8690	0.52 fold	0.59 fold	0.56 fold	ΔD20, SQV_KA (ligand) APTSSSTKKTQLQLSQLLVLKAILNGINNYKNPKLTRMLTFKFYMPKKATELKHLQCLEEELKPLEEVLNLAQSKNFHLRPRDLISNINVIVLELKGSETTFMCEYADETATIVEFLNRWITFCQSIISTLT
